Measurements from patent publication US20060040861A1, “Method of treating, preventing, and diagnosing prostate cancer” (priority 2004, published 2006).

B1: f-adiponectin: Recombinant human full-length (non-proteolytic) adiponectin, about 30-kDa polypeptide; lot mainly HMW form (protein, UniProt Q15848 1-244, looked up)
chain: MLLLGAVLLLLALPGHDQETTTQGPGVLLPLPKGACTGWMAGIPGHPGHNGAPGRDGRDGTPGEKGEKGDPGLIGPKGDIGETGVPGAEGPRGFPGIQGRKGEPGEGAYVYRSAFSVGLETYVTIPNMPIRFTKIFYNQQNHYDGSTGKFHCNIPGLYYFAYHITVYMKDVKVSLFKKDKAMLFTYDQYQENNVDQASGSVLLHLEVGDQVWLQVYGEGERNGLYADNDNDSTFTGFLLYHDTN
modifications: full-length
notes: Recombinant human full-length (non-proteolytic) adiponectin, about 30-kDa polypeptide; lot mainly HMW form

Columns and labels:
LNCaP-FGC cells [1] = assay: [3H] thymidine incorporation assay; type: cell-based, human
Protocol: DU145 (1.5×10^5/well), PC-3 (1.0×10^5/well) and LNCaP-FGC (2.0×10^5/well) cells were seeded into 24-well plates 24 hours before serum-starvation. Cells were deprived of serum for 48 hours, followed by incubation with leptin at indicated concentrations or 100 ng/ml IL-6 for 20 hours. In some experiments, cells were pretreated with SP600125 prior to cytokine stimulation as described below. Cells in each well were pulsed with 1 μCi of [^3H] thymidine (Amersham Pharmacia Biotech Inc., Piscataway, N.J., USA) during the final 5 hours, washed once with PBS, fixed with cold 5% trichloroacetic acid, solubilized with 0.25 M NaOH, and counted in scintillant. Each experiment was performed in quadruplicate, and the values are reported as mean±SD.

DU145 cells = assay: MTT assay (cell growth / viability); type: cell-based, human; details: 5 days
Protocol: DU145 (1×10^3/well), PC-3 (1×10^3/well) and LNCaP-FGC (1.5×10^3/well) cells were seeded in 96-well plates 24 hours prior to serum starvation. Cells were starved of serum for 24 hours and then incubated in the serum-free medium with or without 12.5 μg/ml leptin for 5 days. 3-(4,5-dimethylthiazol-2-yl)-2,5-diphenyl tetrazolium bromide (MTT) was added to each well to a concentration of 0.5 mg/ml. After 3-hour incubation at 37° C., cells were lysed in 50% dimethylformamide and 20% SDS at 37° C. Optical densities (O.D.) at 550 nm and 670 nm were measured by a plate reader, and differential O.D. between 550 nm and 670 nm (O.D. 550 nm minus O.D. 670 nm) were determined. Each experiment was performed in quadruplicate, and the values are reported as mean±SD.
DU145 (0.5-1.0×10^3/well), PC-3 (0.5-1.0×10^3/well), and LNCaP FGC (0.75-1.5×10^3/well) cells were seeded in 96-well plates 24 hours prior to serum starvation. Cells were starved of serum for 24 hours and then incubated in the serum-free medium with or without cytokine(s), DHT and/or doxorubicin at indicated concentrations for 5 days. MTT was added to each well to a concentration of 0.5 mg/ml. After being incubated at 37° C. for 3 hours, cells were lysed in 50% dimethylformamide and 20% SDS at 37° C. Optical densities (OD) at 550 and 670 nm were measured by a plate reader, and differential OD between 550 and 670 nm (OD 550 minus OD 670 nm) were determined. Each experiment was performed in quadruplicate, and the values were reported as mean±S.D.
Sucrose gradients were set up in 2.2-ml centrifuge tubes (Beckman Coulter, Inc., Fullerton, Calif.) by layering 5, 10, 15 and 20% (w/v) sucrose in velocity sedimentation buffer (10 mM HEPES, pH 8; 125 mM NaCl). Gradients were then equilibrated overnight at 4° C. Twenty micrograms of f-adiponectin in 200 μl of velocity sedimentation buffer containing 5 μl of HMW-Native protein marker kit (GE Healthcare, Piscataway, N.J.) set to 0.5 μg/μl albumin was overlayed onto the sucrose gradients and spun in a Beckman TLS-55 rotor at 55,000 rpm for 5 hours at 4° C. Fractions (150 μl each) were sequentially collected from the top to the bottom; aliquots were removed and used immediately in the MTT assay. The remaining material was stored at −80° C. for Western blot analysis with anti-adiponectin antibody and SDS-PAGE with silver staining. For the MTT assay, DU145 cells (0.5×1 03/well) were serum-starved and incubated in triplicate in 60 μl of the serum-free medium plus 30 μl of each fraction. For Western blot analysis, 0.5 μl of each fraction was electrophoresed on a 10% SDS-polyacrylamide gel and electrotransferred to a polyvinylidene difluoride membrane. The membrane was washed, blocked, and hybridized with the anti-adiponectin antibody. Bands were visualized using a Lumiglo reagent (Cell Signaling Technology, Inc., Beverly, Mass.). For SDS-PAGE, 20 μl of each fraction was electrophoresed on a 10% SDS-polyacrylamide gel, followed by silver staining using the Silver Stain kit (Bio-Rad Laboratories, Inc., Hercules, Calif.) to visualize molecular weight markers.

LNCaP-FGC cells [2] = assay: Cell proliferation with leptin and DHT; type: cell-based, human; details: only in the presence of DHT
c-Jun = assay: Western blot analysis of c-Jun phosphorylation in C2C12 myoblasts; type: cell-based, murine; details: 1.0 μg/ml
Protocol: (§1) Seventy-percent confluent cells were deprived of serum for 24 hours, followed by treatment with 1 μg/ml f- or g-adiponectin or 10 μg/ml anisomycin for indicated periods. After being rinsed with cold phosphate-buffered saline, cells were harvested using a scraper and collected by centrifugation at 700×g for 10 minutes at 4° C. The cell pellets were then homogenized in cell lysis buffer (20 mM HEPES, pH 7.9, 300 mM NaCl, 1 mM Na3VO4, 1 μg/ml leupeptin, 5 μg/ml aprotinin, 1 μg/ml pepstatin, and 1 mM phenylmethylsulfonyl fluoride) and rocked gently for 30 minutes at 4° C. The homogenates were centrifuged at 15,000×g for 5 minutes at 4° C., and the supernatants were saved as cell lysates and stored at −80° C. until use.
Cell lysates (100 μg of protein) were electrophoresed on 10% SDS-polyacrylamide gels and transferred to polyvinylidene difluoride membranes. After being washed and blocked, the membranes were hybridized with anti-phospho-c-Jun (Ser-63 or Ser-73) polyclonal antibody that specifically detects phosphorylated c-Jun molecules. The membranes were then stripped and re-hybridized with anti-c-Jun antibody that recognizes both phosphorylated and unphosphorylated c-Jun molecules to normalize sample variations.

STAT3 = assay: Electromobility shift assay (EMSA) of STAT3 DNA binding; type: cell-based, human
Protocol: as §1
The EMSA was performed as described previously (Y. Iwamoto, et al., J. Biol. Chem. 273:18198-18204, 1998). Cell lysates containing 10 μg of protein were subjected to the assay with ^32P-end-labeled, double-stranded oligonucleotide M67-SIE (forward: 5′[…]-3′ and reverse: 5′-[…]-3′) as a probe. The supershift assay was carried out to confirm the STAT3-DNA complex using anti-STAT3 antibody.

Molecule	cell proliferation on co-treatment with leptin and IGF-I (LNCaP-FGC cells [1]; 12.5 μg/ml leptin with 100 ng/ml IGF-I, 20 hours)	effect on the IL-6-induced inhibition of cell proliferation (LNCaP-FGC cells [1]; 12.5 μg/ml leptin with 100 ng/ml IL-6, 20 hours)	[3H] thymidine incorporation (cell proliferation), cytokine alone (LNCaP-FGC cells [1]; serum-deprived, leptin up to 12.5 μg/ml, IL-6 100 ng/ml or IGF-I 100 ng/ml, 20 hours)	cell growth (MTT), leptin together with IGF-I (DU145 cells; 12.5 μg/ml leptin and 100 ng/ml IGF-I, absence of androgen)	living cells (MTT) (DU145 cells; 12.5 μg/ml leptin, serum-free)	cell proliferation, leptin together with androgen (DHT) (LNCaP-FGC cells [2])	effect on the leptin and/or IGF-I stimulation of cell growth (MTT) (DU145 cells; 1 μg/ml f-adiponectin, 12.5 μg/ml leptin and/or 100 ng/ml IGF-I)	effect on the conditioned medium stimulation of cell growth (MTT) (DU145 cells; 1 μg/ml f-adiponectin)	effect on the doxorubicin suppression of cell growth (MTT) (DU145 cells; 1 μg/ml f-adiponectin)	cell growth (MTT) at concentrations up to 1 μg/ml (DU145 cells; serum-free)	concentration at which the inhibitory effect on cell growth saturated (DU145 cells; MTT) [µg/mL]	c-Jun phosphorylation at Ser-63 (c-Jun)	c-Jun phosphorylation at Ser-73 (c-Jun)	constitutive STAT3 activation (STAT3 DNA binding activity) (STAT3; DU145 and HepG2 cells, 1.0 μg/ml, up to 60 minutes)	STAT3 activation (STAT3; the other cell lines (PC-3, LNCaP-FGC, C2C12), data not shown)
leptin: Recombinant human leptin purchased from R&D Systems; major adipose cytokine	did not influence	did not influence	did not influence	stimulated cell growth synergistically	increased living cells	synergistically stimulate cell proliferation	–	–	–	–	–	–	–	–	–
B1	–	–	–	–	–	–	remarkably suppressed	drastically suppressed	enhanced the doxorubicin suppression	inhibited cell growth in a dose-dependent manner	1	augmented c-Jun phosphorylation at Ser-63	stimulated Ser-73 phosphorylation	inhibited constitutive STAT3 activation drastically	Neither f- nor g-adiponectin influenced STAT3 activation
